Tests used:
Format in all cases: cell-based
Nalm6 cells = assay: JNG assay, co-culture with Nalm6 cells; conditions: co-culture with Nalm6
Description: Cellular supernatant is collected and assayed for the induction of cytokines (e.g., IL2).
JNG (Jurkat cells expressing EGFP under an NFAT promoter) were infected with lentiviral vectors encoding different single chain and multi-chain SARs by spinfection in the presence of 8 µg/ml of Polybrene® (Sigma, Catalog no. H9268). The Jurkat-NFAT-GFP cells are engineered in such a way that the IL-2 promoter, which carries NFAT binding sites, is cloned upstream of the GFP gene. These cells have been used to study signaling via TCR and CAR. The different SARs were stably expressed in Jurkat NFAT-GFP cells by lentiviral mediated gene transfer, followed by selection with puromycin or blasticidin. No drug selection was used in case the construct lacked an antibiotic resistance gene. The SAR-expressing Jurkat-NFAT-GFP cells were cocultured with the target cells at E:T ratio of approximately 1:2 for approximately 4 hours to 18 hours. When the interaction between SIRs and their target antigen results in activation of the NFAT pathway, GFP expression is induced. […] GFP expression was monitored by FACS analysis. The Jurkat-NFAT-GFP (parental) cells were used as control. The structure of different constructs can be determined based on their names. For example, the construct CD8SP-CD19-hu-mROO5-1-vL-[hTCRa-C SDVP]-F-F2A-Spe-IgHSP-Apa-CD20-vHH-2HCD25-G4S-CDl9-hu-mROO5-1-vH-Mlu-[hTCRb-KACIAH]-F-P2A-PAC has the following modules from 5′ to 3′ direction: a CD8 signal peptide (CD8SP), the CD19 targeting hu-mROO5-1 vL fragment (CD19-hu-mROO5-1), Xho1 cloning site, human TCRa constant chain containing CSDVP mutations (hTCRa-CSDVP), Furine cleavage site (F), F2A ribosomal skip sequence (F2A), SpeI site, human IgH signal peptide (IgHSP), Apa I restriction enzyme site, camelid CD20-2HCD25-VHH module targeting CD20, BamHI restriction enzyme site, Glycinex4-serine linker (G4S), BstI restriction enzyme site, CD19-hu-mROO5-1-vH fragment targeting CD19, Mlu I restriction enzyme site, human TCRb constant chain containing KACIAH mutations ([hTCRb-KACIAH]), Furine cleavage site (F), P2A ribosomal skip sequence and Puromycin resistance gene (PAC). The sequence of the other constructs in the table can be similarly determined from their names and by referring to the different Tables of this disclosure that provide the names and SEQ ID NO of the different modules. Alternatively, the composition and modular architecture of the different SAR constructs can be determined from their sequences by bioinformatics tools, including using nucleic acid and amino acids homology searches. A SAR is considered positive in the assay in case the SAR expressing Jurkat-NFAT-GFP cells show greater % GFP positive cells when cultured with the target cell line as compared to parental Jurkat-NFAT-GFP cells. The signs +/-, +, 2+ etc. after the name of the cell lines indicate the relative degree of positivity on the Jurkat-NFAT-GFP assay as measured by the % GFP positive cells after culture of the SAR expressing Jurkat-NFAT-GFP cells with that cell line above the % GFP cells observed in parental Jurkat NFAT-GFP cells serving as controls. In general, the number +/-, +, 2+, 3+, 4+, 5+ refer to approximately 5%, 10%, 20%, 30%, 40% and 50% GFP positive cells. The % of GFP induction in the above assay is dependent not only the relative strength of the SAR but also, among other factors, on the relative level of expression of the SAR in the JNG cells and the relative level of expression of the target antigen in the target cell line. To control for the difference in gene transduction efficiency of the different SAR constructs, the experiment was conducted with JNG cells transduced with SAR constructs co-expressing a drug resistance gene (e.g., puromycin or PAC) followed by drug selection to generate a stable population of SAR-expressing cells. […]

RAJI cells = assay: JNG assay, co-culture with RAJI cells; conditions: JNG cells expressing construct, co-culture with Raji
How it was run: (§1)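 Jurkat NFAT-GFP (JNG) cells stably transduced with SARs by lentivirus, with drug selection where the construct carried a resistance gene, then co-cultured with target cells at E:T ~1:2 for ~4–18 h. % GFP-positive cells measured by FACS against parental JNG; +/- to 5+ correspond to ~5–50% GFP-positive.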

L363 cells = assay: JNG assay, co-culture with L363 cells; conditions: co-culture with L363
How it was run: as §1

B1: 22209 (protein)
chain: MALPVTALLLPLALLLHAARPACPYINIYNAEPANPSEKNSPTQYAYGTGGGGSGGGGSGGGGSEFDIQMTQSPSSLSASVGDRVTITCKASDHINNWLAWYQQKPGQAPKLLIYGATTLETGVPSRFSGSGSGTDYTLTISSLQPEDFATYYCQQSWNTPWTFGQGTKLEIKRLEDLKNVFPPEVAVFEPSKAEIAHTQKATLVCLATGFYPDHVELSWWVNGKEVHSGVCTDPQPLKEQPALNDSRYCLSSRLRVSATFWQNPRNHFRCQVQFYGLSENDEWTQDRAKPVTQIVSAEAWGRADCGITSASYHQGVLSATILYEILLGKATLYAVLVSALVLMAMVKRKDSRGRAKRSGSGATNFSLLKQAGDVEENPGPTSATMDWIWRILFLVGAATGAHSGPQVQLQESGGGLAQAGGSLRLSCAASGRTFSMGWFRQAPGKEREFVAAITYSGGSPYYASSVRGRFTISRDNAKNTVYLQMNSLKPEDTAVYYCAANPTYGSDWNAENWGQGTQVTVSSGSGGGGSGGGGSGGGGSFEQVQLQQPGAELVKPGASVKMSCKASGYAFSSYWINWMKQKPGQGLEWIGQIYPGDGDTNYNGKFKGRATLTADTSSSTAYMQLSSLTSEDSAVYFCARSITTVVGCAMDYWGQGTSVTVSSTRIQNPDPAVYQLRDSKSSDKSVCLFTDFDSQTNVSQSKDSDVYITDKCVLDMRSMDFKSNSAVAWSNKSDFACANAFNNSIIPEDTFFPSSDVPCDVKLVEKSFETDTNLNFQNLSVIGFRILLLKVAGFNLLMTLRLWSSRAKRSGSGVKQTLNFDLLKLAGDVESNPGPSRGHMTEYKPTVRLATRDDVPRAVRTLAAAFADYPATRHTVDPDRHIERVTELQELFLTRVGLDIGKVWVADDGAAVAVWTTPESVEAGAVFAEIGPRMAELSGSRLAAQQQMEGLLAPHRPKEPAWFLATVGVSPDHQGKGLGSAVVLPGVEAAERAGVPAFLETSAPRNLPFYERLGFTVTADVEVPEGPRTWCMTRKPGA
- NFAT-GFP ASSAY: Nalm6 (Nalm6 cells): 2+ (refer to approximately 5%, 10%, 20%, 30%, 40% and 50% GFP positive cells)
- NFAT-GFP ASSAY: Raji (RAJI cells): 2+ (refer to approximately 5%, 10%, 20%, 30%, 40% and 50% GFP positive cells)

B2: 21987 (protein)
chain: MALPVTALLLPLALLLHAARPQLQLQESGPGLVKPSETLSLTCTVSGDSISSGDYYWGWIRQPPGKGLEWIGHIYYSGVTYYNPSLKSRVTISVDTSRNQFSLKLSSVTAADTAVYYCTREDSSNWRSRGQGTLVTVSSLEDLKNVFPPEVAVFEPSEAEISHTQKATLVCLATGFYPDHVELSWWVNGKEVHSGVCTDPQPLKEQPALNDSRYCLSSRLRVSATFWQNPRNHFRCQVQFYGLSENDEWTQDRAKPVTQIVSAEAWGRADCGFTSESYQQGVLSATILYEILLGKATLYAVLVSALVLMAMVKRKDSRGRAKRSGSGATNFSLLKQAGDVEENPGPTSMDWIWRILFLVGAATGAHSFEQVQLVESGGGLVQPGGSLRLSCAASGFTFTNHAMSWVRQAPGKGLELVSSISGNGRTTYYADSVKGRFTISRDISKNTLDLQMNSLRAEDTAVYYCAKDGGETLVDSRGQGTLVTVSSTRIQNPDPAVYQLRDSKSSDKSVCLFTDFDSQTNVSQSKDSDVYITDKCVLDMRSMDFKSNSAVAWSNKSDFACANAFNNSIIPEDTFFPSPESSCDVKLVEKSFETDTNLNFQNLSVIGFRILLLKVAGFNLLMTLRLWSSRAKRSGSGVKQTLNFDLLKLAGDVESNPGPSRGHMTEYKPTVRLATRDDVPRAVRTLAAAFADYPATRHTVDPDRHIERVTELQELFLTRVGLDIGKVWVADDGAAVAVWTTPESVEAGAVFAEIGPRMAELSGSRLAAQQQMEGLLAPHRPKEPAWFLATVGVSPDHQGKGLGSAVVLPGVEAAERAGVPAFLETSAPRNLPFYERLGFTVTADVEVPEGPRTWCMTRKPGA
- NFAT-GFP ASSAY: L363 (L363 cells): + (refer to approximately 5%, 10%, 20%, 30%, 40% and 50% GFP positive cells)
- NFAT-GFP ASSAY: Nalm6 (Nalm6 cells): +/- (refer to approximately 5%, 10%, 20%, 30%, 40% and 50% GFP positive cells)

B3: 21986 (protein)
chain: MALPVTALLLPLALLLHAARPQLQLQESGPGLVKPSETLSLTCTVSGDSISSGDYYWGWIRQPPGKGLEWIGHIYYSGVTYYNPSLKSRVTISVDTSRNQFSLKLSSVTAADTAVYYCTREDSSNWRSRGQGTLVTVSSLEDLKNVFPPEVAVFEPSEAEISHTQKATLVCLATGFYPDHVELSWWVNGKEVHSGVCTDPQPLKEQPALNDSRYCLSSRLRVSATFWQNPRNHFRCQVQFYGLSENDEWTQDRAKPVTQIVSAEAWGRADCGFTSESYQQGVLSATILYEILLGKATLYAVLVSALVLMAMVKRKDSRGRAKRSGSGATNFSLLKQAGDVEENPGPTSMDWIWRILFLVGAATGAHSFEEVQLLESGGGLVQPGGSLRLSCAASGFTFSSYAMSWVRQAPGKGLEWVSSISGSGDYIYYADSVKGRFTISRDISKNTLYLQMNSLRAEDTAVYYCAKEGTGANSSLADYRGQGTLVTVSSTRIQNPDPAVYQLRDSKSSDKSVCLFTDFDSQTNVSQSKDSDVYITDKCVLDMRSMDFKSNSAVAWSNKSDFACANAFNNSIIPEDTFFPSPESSCDVKLVEKSFETDTNLNFQNLSVIGFRILLLKVAGFNLLMTLRLWSSRAKRSGSGVKQTLNFDLLKLAGDVESNPGPSRGHMTEYKPTVRLATRDDVPRAVRTLAAAFADYPATRHTVDPDRHIERVTELQELFLTRVGLDIGKVWVADDGAAVAVWTTPESVEAGAVFAEIGPRMAELSGSRLAAQQQMEGLLAPHRPKEPAWFLATVGVSPDHQGKGLGSAVVLPGVEAAERAGVPAFLETSAPRNLPFYERLGFTVTADVEVPEGPRTWCMTRKPGA
- NFAT-GFP ASSAY: L363 (L363 cells): + (refer to approximately 5%, 10%, 20%, 30%, 40% and 50% GFP positive cells)
- NFAT-GFP ASSAY: Nalm6 (Nalm6 cells): +/- (refer to approximately 5%, 10%, 20%, 30%, 40% and 50% GFP positive cells)

B4: 22210 (protein)
chain: MALPVTALLLPLALLLHAARPACPQLGPYELWELSHGTGGGGSGGGGSGGGGSEFDIQMTQSPSSLSASVGDRVTITCKASDHINNWLAWYQQKPGQAPKLLIYGATTLETGVPSRFSGSGSGTDYTLTISSLQPEDFATYYCQQSWNTPWTFGQGTKLEIKRLEDLKNVFPPEVAVFEPSKAEIAHTQKATLVCLATGFYPDHVELSWWVNGKEVHSGVCTDPQPLKEQPALNDSRYCLSSRLRVSATFWQNPRNHFRCQVQFYGLSENDEWTQDRAKPVTQIVSAEAWGRADCGITSASYHQGVLSATILYEILLGKATLYAVLVSALVLMAMVKRKDSRGRAKRSGSGATNFSLLKQAGDVEENPGPTSATMDWIWRILFLVGAATGAHSGPQVQLQESGGGLAQAGGSLRLSCAASGRTFSMGWFRQAPGKEREFVAAITYSGGSPYYASSVRGRFTISRDNAKNTVYLQMNSLKPEDTAVYYCAANPTYGSDWNAENWGQGTQVTVSSGSGGGGSGGGGSGGGGSFEQVQLQQPGAELVKPGASVKMSCKASGYAFSSYWINWMKQKPGQGLEWIGQIYPGDGDTNYNGKFKGRATLTADTSSSTAYMQLSSLTSEDSAVYFCARSITTVVGCAMDYWGQGTSVTVSSTRIQNPDPAVYQLRDSKSSDKSVCLFTDFDSQTNVSQSKDSDVYITDKCVLDMRSMDFKSNSAVAWSNKSDFACANAFNNSIIPEDTFFPSSDVPCDVKLVEKSFETDTNLNFQNLSVIGFRILLLKVAGFNLLMTLRLWSSRAKRSGSGVKQTLNFDLLKLAGDVESNPGPSRGHMTEYKPTVRLATRDDVPRAVRTLAAAFADYPATRHTVDPDRHIERVTELQELFLTRVGLDIGKVWVADDGAAVAVWTTPESVEAGAVFAEIGPRMAELSGSRLAAQQQMEGLLAPHRPKEPAWFLATVGVSPDHQGKGLGSAVVLPGVEAAERAGVPAFLETSAPRNLPFYERLGFTVTADVEVPEGPRTWCMTRKPGA
- NFAT-GFP ASSAY: Nalm6 (Nalm6 cells): + (refer to approximately 5%, 10%, 20%, 30%, 40% and 50% GFP positive cells)
- NFAT-GFP ASSAY: Raji (RAJI cells): 2+ (refer to approximately 5%, 10%, 20%, 30%, 40% and 50% GFP positive cells)

Source: patent US20230212319A1, “NOVEL ANTIGEN BINDING DOMAINS AND SYNTHETIC ANTIGEN RECEPTORS INCORPORATING THE SAME” (University of Southern California, priority 2020, published 2023)
